pKd: −log10 of the molar value.
Legend:
[1] = biological target: unloaded H-2 L^d on RMA-S L^d cells (murine) (UniProt P01897); experiment: direct flow cytometry on RMA-S L^d cells without added peptide
[2] = biological target: H-2 L^d naturally loaded with endogenous peptides on cells (RENCA; MC57G L^d) (murine) (UniProt P01897); experiment: direct flow cytometry on RENCA cells
[3] = biological target: p2Ca loaded H-2 L^d (murine) (UniProt P01897); experiment: flow cytometry competition with constant FITC-30.5.7 Fab on peptide-loaded RMA-S L^d cells
Chain of p2Ca loaded H-2 L^d (murine) (P01897 25-309): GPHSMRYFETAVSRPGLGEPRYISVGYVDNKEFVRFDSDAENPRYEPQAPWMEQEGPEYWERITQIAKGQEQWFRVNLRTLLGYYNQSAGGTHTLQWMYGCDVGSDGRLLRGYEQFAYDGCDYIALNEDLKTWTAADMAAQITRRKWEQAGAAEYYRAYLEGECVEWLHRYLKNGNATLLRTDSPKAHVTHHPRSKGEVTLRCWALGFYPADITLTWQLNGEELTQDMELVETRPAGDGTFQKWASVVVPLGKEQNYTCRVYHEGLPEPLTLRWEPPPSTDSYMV

[4] = biological target: unloaded H-2 L^d on RMA-S L^d cells (murine) (UniProt P01897); experiment: direct flow cytometry on RMA-S L^d cells
[5] = biological target: tum^- loaded H-2 L^d (murine) (UniProt P01897); experiment: direct flow cytometry on peptide-loaded RMA-S L^d cells
Chain of tum^- loaded H-2 L^d (murine) (P01897 25-309): as above

[6] = biological target: SL9 loaded H-2 L^d (murine) (UniProt P01897); experiment: as above
Chain of SL9 loaded H-2 L^d (murine) (P01897 25-309): as above

[7] = biological target: pVSV loaded H-2 K^b on T2 K^b cells (mouse) (UniProt P01901); experiment: direct flow cytometry on peptide-loaded T2 K^b cells
Chain of pVSV loaded H-2 K^b on T2 K^b cells (mouse) (P01901 22-369): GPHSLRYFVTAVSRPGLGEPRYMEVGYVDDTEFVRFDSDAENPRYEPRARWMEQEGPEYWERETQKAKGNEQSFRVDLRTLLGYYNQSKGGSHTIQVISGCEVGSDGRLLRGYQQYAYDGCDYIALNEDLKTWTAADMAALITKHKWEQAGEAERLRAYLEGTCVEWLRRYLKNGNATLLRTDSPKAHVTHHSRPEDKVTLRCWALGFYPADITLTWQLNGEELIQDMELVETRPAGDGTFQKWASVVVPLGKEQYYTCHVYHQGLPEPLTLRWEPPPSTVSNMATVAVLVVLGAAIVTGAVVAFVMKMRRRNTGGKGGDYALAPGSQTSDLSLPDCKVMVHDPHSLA

[8] = biological target: SIY loaded H-2 K^b on T2 K^b cells (mouse) (UniProt P01901); experiment: as above
Chain of SIY loaded H-2 K^b on T2 K^b cells (mouse) (P01901 22-369): as above

[9] = biological target: SIY loaded H-2 K^bm3 on T2 K^bm3 cells (mouse); experiment: direct flow cytometry on peptide-loaded T2 K^bm3 cells
[10] = biological target: p2Ca loaded H-2 L^d (murine) (UniProt P01897); experiment: flow cytometry, direct saturation of FITC-30.5.7 Fab on peptide-loaded RMA-S L^d cells
[11] = biological target: SL9 loaded H-2 L^d (murine) (UniProt P01897); experiment: as above
[12] = biological target: QL9 loaded H-2 L^d (murine) (UniProt P01897); experiment: as above
Chain of QL9 loaded H-2 L^d (murine) (P01897 25-309): as the sequence (P01897 25-309) above

[13] = biological target: pMCMV loaded H-2 L^d (murine) (UniProt P01897)
Chain of pMCMV loaded H-2 L^d (murine) (P01897 25-309): as above

Chain of soluble divalent 2C TcR/Ig (A2KF29 whole entry, looked up, tested part not stated): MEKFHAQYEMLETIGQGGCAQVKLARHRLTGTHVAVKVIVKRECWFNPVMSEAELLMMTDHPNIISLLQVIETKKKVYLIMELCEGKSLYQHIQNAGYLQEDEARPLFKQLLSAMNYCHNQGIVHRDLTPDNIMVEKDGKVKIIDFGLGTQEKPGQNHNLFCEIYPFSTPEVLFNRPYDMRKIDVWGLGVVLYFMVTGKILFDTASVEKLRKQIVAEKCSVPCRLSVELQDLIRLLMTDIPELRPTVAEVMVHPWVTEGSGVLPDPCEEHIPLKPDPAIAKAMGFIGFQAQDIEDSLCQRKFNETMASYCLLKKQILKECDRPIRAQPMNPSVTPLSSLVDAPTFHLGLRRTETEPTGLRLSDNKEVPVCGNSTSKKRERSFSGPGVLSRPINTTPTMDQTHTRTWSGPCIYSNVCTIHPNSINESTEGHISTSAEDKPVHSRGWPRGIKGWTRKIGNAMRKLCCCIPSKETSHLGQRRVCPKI
Chain of unloaded H-2 L^d on RMA-S L^d cells (murine) (P01897 25-309): as the sequence (P01897 25-309) above
Chain of H-2 L^d naturally loaded with endogenous peptides on cells (RENCA; MC57G L^d) (murine) (P01897 25-362): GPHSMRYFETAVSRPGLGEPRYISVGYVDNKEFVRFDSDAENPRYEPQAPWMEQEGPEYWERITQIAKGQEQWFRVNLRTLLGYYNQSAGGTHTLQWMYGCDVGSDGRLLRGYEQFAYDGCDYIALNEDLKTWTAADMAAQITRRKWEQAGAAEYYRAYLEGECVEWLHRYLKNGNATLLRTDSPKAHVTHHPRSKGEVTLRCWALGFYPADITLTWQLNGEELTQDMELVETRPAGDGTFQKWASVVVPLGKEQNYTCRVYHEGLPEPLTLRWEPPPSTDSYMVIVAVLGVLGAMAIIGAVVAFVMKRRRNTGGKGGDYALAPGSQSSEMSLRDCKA

mAb 30.5.7 (antibody)
fold increase of mean channel fluorescence, cells at 27° C. against cells at 37° C. [1]: 5 fold
fold increase of reactivity on γ-IFN treated cells (5-50 units/ml) over untreated cells [2]: 5 to 6 fold

soluble divalent 2C TcR/Ig (from UniProt A2KF29)
Kapp [3]: 108 nM
MCF [4]: 10 MCF
MCF [5]: 10 MCF
MCF [6]: 100 MCF
MCF [7]: 14 MCF
MCF [8]: 276 MCF
MCF [9]: 36 MCF

FITC labeled 30.5.7 Fab
pKd [10]: 8.24
pKd [11]: 8.19 to 8.32
pKd [12]: 7.91
pKd [13]: 8.32
